Reference: patent US20210332145A1 (SINGLE CELL TECHNOLOGY, published 2021)
Substitutions are numbered along the chain they refer to.

T1: BCMA on cells (293T cells transfected with BCMA; H929, MM.1S and U266 cell lines expressing BCMA) (human, UniProt Q02223 1-184)
T1 construct: H929, MM.1S and U266 carry the native protein; also called B-cell Maturation Antigen; TNFRSF17
T1 sequence: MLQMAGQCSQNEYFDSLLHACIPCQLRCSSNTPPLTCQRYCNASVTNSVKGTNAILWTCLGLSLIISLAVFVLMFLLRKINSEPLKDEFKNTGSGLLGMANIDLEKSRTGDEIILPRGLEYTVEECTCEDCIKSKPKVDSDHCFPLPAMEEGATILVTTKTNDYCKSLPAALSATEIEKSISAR

T2: human BCMA with a His tag (ACROBiosystems, Catalog No.: BCA-H522y) (human)
T2 construct: Bought His-tagged recombinant protein; also called huBCMA-His; Recombinant human BCMA
T2 chain: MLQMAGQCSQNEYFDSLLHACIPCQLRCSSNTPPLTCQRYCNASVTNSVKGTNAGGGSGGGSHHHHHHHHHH

T3: mouse BCMA with a His tag (ACROBiosystems, Catalog No.: BCA-M52H3) (mouse)
T3 construct: Bought His-tagged recombinant protein
T3 chain: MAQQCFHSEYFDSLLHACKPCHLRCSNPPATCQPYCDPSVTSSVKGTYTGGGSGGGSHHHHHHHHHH

B1: SCT-Aa13(m/m) (antibody, V domains shown)
VH: QVQLQQSDAELVKPGASVKISCKVSGYTFTDYTIHWMKQRPEQGLEWIGYIYPRDGSTKYNEKFKGKATLTADKSSSTAYMQLNSLTSEDSAVYFCARWDYEGFDYWGQGTTLTVSS
VL: DIVMTQSPATLSVTPGDRVSLSCRASQSISDYLHWYQQKSHESPRLLIKYASQSISGIPSRFSGSGSGSDFTLSINSVEPEDVGVYYCQNGHSFPPTFGSGTKLEIK
notes: Full IgG format: mouse IgG1 heavy chain constant region, mouse kappa light chain constant region
B2: SCT-Aa09(m/m) (antibody, V domains shown)
VH: B1 VH with Y32H, I51F, G56D, S57N, K74R
VL: B1 VL with S30R
notes: as for B1
B3: SCT-Aa12(m/m) (antibody, V domains shown)
VH: B1 VH with Y52F, R54S, E89D
VL: B1 VL with H34N
notes: as for B1
B4: SCT-Aa01(m/m) (antibody, V domains shown)
VH: DVQLQESGPGLVKPSQSLSLTCSVTGYSITSGYYWNWIRQFPGNKLEWMGYIRYDGSNNYNPSLKNRISITRDTSKNQFFLKLNSVTTEDTATYYCAPYDYDYAMDFWGQGTSVTVSS
VL: DIQMTQSPASLSASVGETVTITCRASGNIHNYLAWYQQKQGKSPQLLVYNAKTLAHGVPSRFSGSGSGTQYSLKITSLQPEDFGTYYCQHFWSTPFTFGSGTKLEIK
notes: as for B1
B5: SCT-Aa05(m/m) (antibody, V domains shown)
VH: EVKLLQSGGGLVQPGGSLKLSCAASGIDFSRYWMSWVRRAPGKGLEWIGEINPDSSTINYAPSLKDKFIISRDNAKNTLYLQMSKVRSEDTGLYYCASLYYDYEREYGMDYWGQGTSVTVSS
VL: DIVMTQSQKFMSTSVGDRVSVTCKASQNVGTNVAWYQQKPGQSPKALIYSASYRFSGVPDRFTGSGSGTDFTLTISNVQSEDLAEYFCQQYNSYPYTFGGGTKLEIK
notes: as for B1
B6: SCT-Aa03(m/m) (antibody, V domains shown)
VH: EVKLLQSGGGLVQPGGSLKLSCAASGIDFSRYWMSWVRRAPGKGLEWIGEINPDSSTINYAPSLKDKFIISRDNAKNTLYLQMSKVRSEDTALYYCASFYYDYDHAMDYWGQGTSVTVSS
VL: B5 VL with V19F, Y96F, G100S
notes: as for B1
B7: SCT-Aa03(h/h) (antibody, V domains shown)
VH: B6 VH
VL: B5 VL with V19F, Y96F, G100S
notes: Full IgG format, chimeric: human IgG1 heavy chain constant region, human kappa light chain constant region
B8: SCT-Aa04(m/m) (antibody, V domains shown)
VH: B5 VH with G92A, L99F, E104D, E106G, Y107A, G108A
VL: B5 VL with F55Y
notes: as for B1
B9: SCT-Aa04(h/h) (antibody, V domains shown)
VH: B5 VH with G92A, L99F, E104D, E106G, Y107A, G108A
VL: B5 VL with F55Y
notes: as for B7
B10: SCT-Aa05(h/h) (antibody, V domains shown)
VH: B5 VH
VL: B5 VL
notes: as for B7
B11: SCT-Aa02(m/m) (antibody, V domains shown)
VH: B5 VH with Y60S, K65E, G92A, E106D, G108A, T116A
VL: B5 VL with N92H, Y96F
notes: as for B1
B12: SCT-Aa02(h/h) (antibody, V domains shown)
VH: B5 VH with Y60S, K65E, G92A, E106D, G108A, T116A
VL: B5 VL with N92H, Y96F
notes: as for B7

Experiments:
[1] = target: T4, cyno BCMA with a His tag (ACROBiosystems, Catalog No.: BCA-052H7) (cyno); test: ELISA, plate-coated cyno BCMA-His
T4 construct: Bought His-tagged recombinant protein
T4 sequence (chain, as listed by the source limits assumed): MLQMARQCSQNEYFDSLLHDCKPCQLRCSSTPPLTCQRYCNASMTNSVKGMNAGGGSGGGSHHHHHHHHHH
Protocol: (§1) The recombinantly expressed antibodies were used to assess binding activity to BCMA of different species origins by conventional ELISA according to the known art. Recombinant human BCMA, cyno BCMA, and mouse BCMA were coated onto ELISA plates to detect binding at serially diluted concentrations of the anti-BCMA antibody preparations.
(§2) The ability for antibodies of the present disclosure to bind human BCMA was measured with an ELISA assay. For the BCMA binding assay, a 96-well plate (Nunc) is coated with human BCMA with a His tag (ACROBiosystems, Catalog No.: AC108P1-180611F2-Bulk, SEQ ID NO:2) at 0.2 μg/well overnight at 4° C. Wells are blocked for 2 h with blocking buffer (PBS containing 3% bovine serum albumin). Wells are washed three times with PBS containing 0.1% Tween-20. Anti-human BCMA antibodies of the present disclosure or control IgG (100 μL) is then added and incubated at room temperature for 1 h. After washing, the plate is incubated with 100 μL of goat anti-mouse IgG Fcγ Fragment Specific-HRP conjugate (Jackson ImmunoResearch) at room temperature for 1 h. The plates are washed and then incubated with 100 μL of 3,3′,5,5′-tetra-methylbenzidine. The absorbance at 450 nm is read on a microplate reader. The half maximal effective concentration (EC50) is calculated using GraphPad Prism 6 software.
In experiments performed essentially as described above, anti-human BCMA antibodies of the present disclosure bind cyno BCMA with a His tag (ACROBiosystems, Beijing, China, Catalog No.: BCA-052H7, SEQ ID NO:110) with an EC50 values shown in Table 4.

[2] = target: T1, BCMA on cells (293T cells transfected …); test: flow cytometry, H929 cells
Protocol: A cell line expressing BCMA, H929, was used to assess binding by anti-BCMA antibodies on the native protein on the cell surface by flow cytometry according to the known art. A subset of anti-human BCMA antibodies were assayed for binding to H929 and the fraction of cells bound the labeled antibody above background defined by control is shown in Table 8.

[3] = target: T1, BCMA on cells (293T cells transfected …); test: flow cytometry, H929 cells; remark: listed apart in the source
[4] = target: T2, human BCMA with a His tag …; test: ELISA, plate-coated human BCMA-His
Protocol: as §1, §2
In experiments performed essentially as described above, anti-human BCMA antibodies of the present disclosure bind human BCMA with a His tag (ACROBiosystems, Beijing, China, Catalog No.: BCA-H522y, SEQ ID NO:2) with an EC50 values shown in Table 3.

[5] = target: T3, mouse BCMA with a His tag …; test: ELISA, plate-coated mouse BCMA-His
Protocol: as §1, §2
In experiments performed essentially as described above, anti-human BCMA antibodies of the present disclosure bind mouse BCMA with a His tag (ACROBiosystems, Beijing, China, Catalog No.: BCA-M52H3, SEQ ID NO:109) with an EC50 values shown in Table 5.

[6] = target: T2, human BCMA with a His tag …; test: SPR, Biacore T200
Protocol: The binding affinity of select anti-BCMA was measured on a surface plasmon resonance (SPR) instrument, Biacore T200™, against human BCMA by a method known in the art.
In experiments performed essentially as described above, a subset of anti-human BCMA antibodies of the present disclosure bind human BCMA with a His tag (ACROBiosystems, Beijing, China, Catalog No.: BCA-H522y, SEQ ID NO:2) with affinity shown in Table 6.

[7] = target: T1, BCMA on cells (293T cells transfected …); test: flow cytometry, 293T cells transfected with BCMA, above parental 293T background

| Binder | EC50 [1] | Positive (%) [2] | Mean fluorescent intensity [3] | EC50 [4] | EC50 [5] | Kd [6] | koff [6] | kon [6] | Positive (%) [7] |
| --- | --- | --- | --- | --- | --- | --- | --- | --- | --- |
| B1 | 0.174 µg/mL | 99.9% | 2560 | 0.00264 µg/mL | 0.529 µg/mL | 43.8 nM | 0.0358 s⁻¹ | 817000 M⁻¹ s⁻¹ | 84.4% |
| B2 | 5.57 µg/mL | 18.4% | 102 | 0.00196 µg/mL | – | 76.6 nM | 0.127 s⁻¹ | 1.66e+06 M⁻¹ s⁻¹ | 16.9% |
| B3 | 9.74 µg/mL | 99.9% | 3480 | 0.0017 µg/mL | 0.0107 µg/mL | 5.01 nM | 0.011 s⁻¹ | 2.2e+06 M⁻¹ s⁻¹ | 85.7% |
| B4 | 0.0057 µg/mL | 99.8% | 2090 | 0.00292 µg/mL | – | 68.6 nM | 0.0175 s⁻¹ | 255000 M⁻¹ s⁻¹ | 48.2% |
| B5 | – | 99.9% | 2020 | 0.00212 µg/mL | 0.0522 µg/mL | 4.91 nM | 0.00034 s⁻¹ | 69200 M⁻¹ s⁻¹ | 94.3% |
| B6 | – | 99.9% | 3920 | 0.00171 µg/mL | 0.0791 µg/mL | 11.7 nM | 0.00263 s⁻¹ | 224000 M⁻¹ s⁻¹ | 91.6% |
| B7 | 1.6 µg/mL | 98.2% | 1070 | 0.00346 µg/mL | 0.0108 µg/mL | 9.49 nM | 0.00284 s⁻¹ | 299000 M⁻¹ s⁻¹ | 75.1% |
| B8 | 2.05 µg/mL | 99.9% | 3790 | 0.00232 µg/mL | 0.0343 µg/mL | 5.62 nM | 0.0126 s⁻¹ | 2.25e+06 M⁻¹ s⁻¹ | 88.9% |
| B9 | – | 96.5% | 623 | 0.00248 µg/mL | 0.27 µg/mL | 32.6 nM | 0.034 s⁻¹ | 1.04e+06 M⁻¹ s⁻¹ | 72% |
| B10 | – | 96.5% | 758 | 0.00235 µg/mL | 0.0295 µg/mL | 9.93 nM | 0.000995 s⁻¹ | 100000 M⁻¹ s⁻¹ | 76.3% |
| B11 | 0.0891 µg/mL | 100% | 4560 | 0.00286 µg/mL | 0.00262 µg/mL | 0.388 nM | 0.000113 s⁻¹ | 292000 M⁻¹ s⁻¹ | 96.3% |
| B12 | 0.0433 µg/mL | 99.2% | 1280 | 0.00285 µg/mL | – | 1.22 nM | 0.000374 s⁻¹ | 306000 M⁻¹ s⁻¹ | 81.9% |
